Results taken from patent US20240083945A1 (Bicycle, published 2024).

Target: T1, COVID-19 nucleocapsid protein (N-protein) (severe acute respiratory syndrome …, UniProt P0DTC9 1-419)
T1 construct: also called nucleocapsid protein (N-protein) of severe acute respiratory syndrome coronavirus 2 (SARS-CoV-2)
Experiment: bio-layer interferometry (BLI)

Binder | Kd [nM]
MPTSCVTDFCNNRYVVNRCA (Ci, Cii and Ciii cysteines covalently bound to TBMT scaffold) [BCY18984] | 72.8
ACSRGYCPRTNTFCA (Ci, Cii and Ciii cysteines covalently bound to TBMT scaffold) [BCY17637] | 1050
RRAVCTTDFCNNRYVVNRCA (Ci, Cii and Ciii cysteines covalently bound to TBMT scaffold) [BCY18976] | 19.7
ACNTWCMDNDRIYFNCA (Ci, Cii and Ciii cysteines covalently bound to TBMT scaffold) [BCY16574] | 1030
ACTTDFCNDRYITELCA (Ci, Cii and Ciii cysteines covalently bound to TBMT scaffold) [BCY17632] | 2600
ACTTDFCNNRYVVNQCQEQS (Ci, Cii and Ciii cysteines covalently bound to TBMT scaffold) [BCY18983] | 2450
ACTTDFCNDRYIINPCA (Ci, Cii and Ciii cysteines covalently bound to TBMT scaffold) [BCY17631] | 321
ACSVDVCAITGVHIPCA (Ci, Cii and Ciii cysteines covalently bound to TATA scaffold) [BCY19566] | 3260
ACTTDFCNNRYVTQRCA (Ci, Cii and Ciii cysteines covalently bound to TBMT scaffold) [BCY17629] | 41.7
ACWTDFCNNRYVTQRCA (Ci, Cii and Ciii cysteines covalently bound to TBMT scaffold) [BCY17634] | 64.2
NQLPCLTDFCNNRYVVNRCA (Ci, Cii and Ciii cysteines covalently bound to TBMT scaffold) [BCY18992] | 19.7
HSLICVTDFCNNRYVVNRCA (Ci, Cii and Ciii cysteines covalently bound to TBMT scaffold) [BCY18986] | 10.6
ACDGNFCDNRYVVNRCA (Ci, Cii and Ciii cysteines covalently bound to TBMT scaffold) [BCY17636] | 1730
ACLPLGARCQWGRTCA (Ci, Cii and Ciii cysteines covalently bound to TATA scaffold) [BCY16576] | 593
ACLPLGARCQWSRTCA (Ci, Cii and Ciii cysteines covalently bound to TATA scaffold) [BCY17647] | 548
HSLICVTDFCNNRYVVNRCMHSQ (Ci, Cii and Ciii cysteines covalently bound to TBMT scaffold) [BCY18987] | 9.7
ACTTDFCNNRYVVNRCA (N-terminal acetyl (Ac); Ci, Cii and Ciii cysteines covalently bound to TBMT scaffold) [BCY20263] | 11.8
ACTTDFCNNRYVVNRCA (Ci, Cii and Ciii cysteines covalently bound to TBMT scaffold) [BCY17628] | 16.6
ACWTDFCNNRYVVNRCA (N-terminal acetyl (Ac); Ci, Cii and Ciii cysteines covalently bound to TBMT scaffold) [BCY20264] | 10.1
QYESCTTDFCNNRYVVNRCA (Ci, Cii and Ciii cysteines covalently bound to TBMT scaffold) [BCY18975] | 63.8
ACSRANNYCDWWKCA (Ci, Cii and Ciii cysteines covalently bound to TBCU scaffold) [BCY16578] | 22300
ACTVDVCAITGVQIPCA (Ci, Cii and Ciii cysteines covalently bound to TATA scaffold) [BCY19568] | 1870
ACSTDVCKLTGIAIPCA (N-terminal acetyl (Ac); Ci, Cii and Ciii cysteines covalently bound to TATA scaffold) [BCY20265] | 2.5
ACHTPDWSDFCAGRYCA (Ci, Cii and Ciii cysteines covalently bound to TBCU scaffold) [BCY16581] | 8040

Binder | Kd [nM]
ACTKGYCPLTDMFCA (Ci, Cii and Ciii cysteines covalently bound to TBMT scaffold) [BCY17639] | 1240
ACKTYCFMENRYSLSCA (Ci, Cii and Ciii cysteines covalently bound to TBMT scaffold) [BCY16563] | 1540
ACSVGYCPLTNTFCA (Ci, Cii and Ciii cysteines covalently bound to TBMT scaffold) [BCY16572] | 1660
LSQPCLTDFCNNRYVVNRCA (Ci, Cii and Ciii cysteines covalently bound to TBMT scaffold) [BCY18991] | 10.6
KTEYCETDFCNNRYVVNRCA (Ci, Cii and Ciii cysteines covalently bound to TBMT scaffold) [BCY18988] | 29.1
QYESCTTDFCNNRYVVNRCGSDN (Ci, Cii and Ciii cysteines covalently bound to TBMT scaffold) [BCY18979] | 108
ACTTDFCNNRYVVNQCSYPR (Ci, Cii and Ciii cysteines covalently bound to TBMT scaffold) [BCY18973] | 225
KSQRCMTDFCNNRYVVNRCA (Ci, Cii and Ciii cysteines covalently bound to TBMT scaffold) [BCY18993] | 23.8
ACTTDFCNDRYIVNSCA (Ci, Cii and Ciii cysteines covalently bound to TBMT scaffold) [BCY17630] | 331
ACMQNPCRWVNIPCA (N-terminal acetyl (Ac); Ci, Cii and Ciii cysteines covalently bound to TATA scaffold) [BCY20266] | 9.7
ACTTDFCNNRYVVNLCQNKS (Ci, Cii and Ciii cysteines covalently bound to TBMT scaffold) [BCY18982] | 79.7
ACFRGYCPQTNLFCA (Ci, Cii and Ciii cysteines covalently bound to TBMT scaffold) [BCY16573] | 728
ACMHDVCVLTGVNIPCA (Ci, Cii and Ciii cysteines covalently bound to TATA scaffold) [BCY19563] | 1510
ACTSYFCNNRFTLNTCA (Ci, Cii and Ciii cysteines covalently bound to TBMT scaffold) [BCY16566] | 1110
ACSTDVCKLTGIAIPCA (Ci, Cii and Ciii cysteines covalently bound to TATA scaffold) [BCY18169] | 1600
ACTTDFCNNRYVVNRCGSDN (Ci, Cii and Ciii cysteines covalently bound to TBMT scaffold) [BCY18971] | 27.9
RRAVCTTDFCNNRYVVNRCDDYH (Ci, Cii and Ciii cysteines covalently bound to TBMT scaffold) [BCY18978] | 40.2
ACDGNFCDNRYIVNTCA (Ci, Cii and Ciii cysteines covalently bound to TBMT scaffold) [BCY17626] | 263
ACTTDFCNNRYVVNRCDDYH (Ci, Cii and Ciii cysteines covalently bound to TBMT scaffold) [BCY18972] | 22.2
EKQYCTTDFCNNRYVVNRCA (Ci, Cii and Ciii cysteines covalently bound to TBMT scaffold) [BCY18977] | 22.3
LARDCGTDFCNNRYVVNRCA (Ci, Cii and Ciii cysteines covalently bound to TBMT scaffold) [BCY18989] | 26.5
ACQVDVCALTGIQIPCA (Ci, Cii and Ciii cysteines covalently bound to TATA scaffold) [BCY19455] | 14900
ACTHDVCVLTGISIPCA (Ci, Cii and Ciii cysteines covalently bound to TATA scaffold) [BCY19564] | 2000
NQLPCLTDFCNNRYVVNQCQEQS (Ci, Cii and Ciii cysteines covalently bound to TBMT scaffold) [BCY18994] | 6890

Binder | Kd [nM]
ACNGDFCNNRYIVNTCA (Ci, Cii and Ciii cysteines covalently bound to TBMT scaffold) [BCY17625] | 27.6
ACNAWFCDGRFYMCA (Ci, Cii and Ciii cysteines covalently bound to TBCU scaffold) [BCY16569] | 4270
ACPVRIEYPICDTSICA (Ci, Cii and Ciii cysteines covalently bound to TBMT scaffold) [BCY16582] | 1790
ACKRGYCPVTDTFCA (Ci, Cii and Ciii cysteines covalently bound to TBMT scaffold) [BCY17640] | 43000
ACSIGYCPVTDTFCA (Ci, Cii and Ciii cysteines covalently bound to TBMT scaffold) [BCY17641] | 1740
ACPQTYCFINNRYCA (Ci, Cii and Ciii cysteines covalently bound to TBMT scaffold) [BCY16567] | 1010
ACWTDFCNNRYIVNTCA (Ci, Cii and Ciii cysteines covalently bound to TBMT scaffold) [BCY17624] | 56.3
ACDKWQLGCRITYKCA (Ci, Cii and Ciii cysteines covalently bound to TATA scaffold) [BCY16575] | 1020
ACYVGYCPATDTFCA (Ci, Cii and Ciii cysteines covalently bound to TBMT scaffold) [BCY17638] | 805
ACHVDVCLITGVNIPCA (Ci, Cii and Ciii cysteines covalently bound to TATA scaffold) [BCY19567] | 2250
AYTDCTTDFCNNRYVVNRCA (Ci, Cii and Ciii cysteines covalently bound to TBMT scaffold) [BCY18974] | 20.6
ACSEGWCFRENRYQVCA (Ci, Cii and Ciii cysteines covalently bound to TATA scaffold) [BCY16565] | 1340
ACDGNFCDNRYVTQRCA (Ci, Cii and Ciii cysteines covalently bound to TBMT scaffold) [BCY17635] | 40300
ACTNRNFCQNRYSVTCA (Ci, Cii and Ciii cysteines covalently bound to TBCU scaffold) [BCY16568] | 8160
ACVHDVCALTGIHIPCA (Ci, Cii and Ciii cysteines covalently bound to TATA scaffold) [BCY19453] | 4240
ACTTDFCNSRYIVNTCA (Ci, Cii and Ciii cysteines covalently bound to TBMT scaffold) [BCY16570] | 442
ACIVGYCPATDDFCA (Ci, Cii and Ciii cysteines covalently bound to TBMT scaffold) [BCY16571] | 797
ACLVDVCEITGVQIRCA (Ci, Cii and Ciii cysteines covalently bound to TATA scaffold) [BCY18171] | 5610
LEQICVTDFCNNRYVVNRCA (Ci, Cii and Ciii cysteines covalently bound to TBMT scaffold) [BCY18985] | 28.1
ACTTDFCNNRYVVNRCEALE (Ci, Cii and Ciii cysteines covalently bound to TBMT scaffold) [BCY18970] | 29.3
ACQYTFCENRYKICA (Ci, Cii and Ciii cysteines covalently bound to TATA scaffold) [BCY16564] | 2080
ACTVDVCLLTGLHIPCA (Ci, Cii and Ciii cysteines covalently bound to TATA scaffold) [BCY19454] | 7110
ACTVDVCELTGLHIPCA (Ci, Cii and Ciii cysteines covalently bound to TATA scaffold) [BCY19565] | 840
ACEGDFCDGRYIVNTCA (Ci, Cii and Ciii cysteines covalently bound to TBMT scaffold) [BCY17627] | 36.9
